Measured values: patent EP2074145B1

How the values were obtained:
[1] = molecular target: T1, peptide 13 (aa 13-21 of Aβ); assay: ELISA with biotinylated peptides (Mimotopes protocol)
T1 sequence (peptide, biotinylated (site not stated)): HHQKLVFFA

[2] = molecular target: T1, peptide 13 (aa 13-21 of Aβ); assay: ELISA with biotinylated peptide Amyloid beta 13-21
[3] = molecular target: biotinylated complete Aβ1-42 peptide (Bachem) (UniProt P05067); assay: ELISA with biotinylated complete Aβ1-42 peptide
Chain of biotinylated complete Aβ1-42 peptide (Bachem) (P05067 672-713 limits assumed): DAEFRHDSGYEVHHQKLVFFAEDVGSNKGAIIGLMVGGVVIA

Substance: humanized anti-human amyloid beta monoclonal antibody hC2
- percent higher affinity than to the whole Aβ1-42 protein [1]: 36%
- O.D [2]: 1.23 O.D
- O.D [3]: 0.9 O.D
